Assay in all cases: ELISA, antibody coated, 250 ng FLAG-tagged mutant Ang-2, anti-FLAG-HRP, OD450 relative to native Ang-2
(In general: An ELISA detects its analyte on a solid surface through an enzyme-linked reagent.)

Assay [1] addresses T1, mutant Ang-2 protein, N467 substituted with alanine (FLAG-tagged at N-terminal) (human, UniProt O15123 281-496, limits assumed).
T1 chain: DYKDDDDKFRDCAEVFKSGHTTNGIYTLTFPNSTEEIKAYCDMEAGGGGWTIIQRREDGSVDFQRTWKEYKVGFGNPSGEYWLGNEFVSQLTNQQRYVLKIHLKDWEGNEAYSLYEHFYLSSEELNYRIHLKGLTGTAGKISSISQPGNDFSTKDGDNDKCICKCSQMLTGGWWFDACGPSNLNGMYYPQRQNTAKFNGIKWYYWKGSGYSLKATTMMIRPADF
Here is the method: (§1) Each well of a 96-well MaxiSorp™ flat-bottom plate (Nunc) was coated with 50 ul (microliter) of 1000 nM antibodies (Example 2). Then, the plate was washed five times with a 0.05% (v/v) Tween-20 containing PBS (PBST) and blocked with a 1% (v/v) BSA containing PBS at a room temperature for 2 hours. 250 ng of each mutant Ang-2 protein obtained by substituting S417, Q418, P419, N421, 1434, D448, A449, P452, Y460, N467, K468, or F469 residue of Ang-2 protein tagged with a FLAG sequence ([…], Sigma) at its N-terminal with alanine was added to each well of the plate, which was then allowed to react at a room temperature for 2 hours.
(§2) The plate was washed five times with a 0.05% (v/v) Tween-20 containing PBS, reacted with an anti-FLAG antibody (SIGMA) conjugated with HRP which was diluted in a 1% (v/v) BSA containing PBS at a ratio of 1:5,000 (v/v) at a room temperature for 1 hour, and washed five times with a 0.1% (v/v) Tween-20 containing PBS.
(§3) Finally, 50 ul of TMB substrates (Cell signaling) was added to each well of the plate to induce color development reaction at a room temperature for 3 min. and the reaction was ceased by the addition of 50 ul of Stop solution (Cell signaling) and then, OD450 values were measured on a plate reader (Molecular Devices). By comparing binding affinities with mutated Ang-2 to those of unmutated Ang-2, each epitope of Ang-2 antibodies was identified. The thus obtained measurement results of the binding affinities (%) of mutant Ang-2 against the binding affinity of the native Ang-2 are shown in the following Table 9.

In assay [2] the target is T2, mutant Ang-2 protein, P419 substituted with alanine (FLAG-tagged at N-terminal) (human, UniProt O15123 281-496, limits assumed).
T2 chain: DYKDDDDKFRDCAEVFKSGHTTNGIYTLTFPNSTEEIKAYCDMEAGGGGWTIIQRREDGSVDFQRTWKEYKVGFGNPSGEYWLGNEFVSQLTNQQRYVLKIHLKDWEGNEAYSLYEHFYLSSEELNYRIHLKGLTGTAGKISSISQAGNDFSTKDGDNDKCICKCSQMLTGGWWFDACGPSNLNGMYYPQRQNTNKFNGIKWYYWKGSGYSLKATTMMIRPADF
As for the experimental part:
as §1, §2, §3

Assay [3] concerns the target T3, mutant Ang-2 protein, I434 substituted with alanine (FLAG-tagged at N-terminal) (human, UniProt O15123 281-496, limits assumed).
T3 construct: also called 1434
T3 chain: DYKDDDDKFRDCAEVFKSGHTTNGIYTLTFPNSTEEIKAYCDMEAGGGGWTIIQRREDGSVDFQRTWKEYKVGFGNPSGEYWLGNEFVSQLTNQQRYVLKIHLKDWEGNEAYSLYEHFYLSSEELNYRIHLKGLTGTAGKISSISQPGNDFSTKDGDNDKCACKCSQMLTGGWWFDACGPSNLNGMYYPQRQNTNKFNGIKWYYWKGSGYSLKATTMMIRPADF
As for the experimental part:
as §1, §2, §3

The target in assay [4] is T4, mutant Ang-2 protein, Q418 substituted with alanine (FLAG-tagged at N-terminal) (human, UniProt O15123 281-496, limits assumed).
T4 construct: also called Q418A mutant protein; Ang-2 protein having Q418A mutation
T4 chain: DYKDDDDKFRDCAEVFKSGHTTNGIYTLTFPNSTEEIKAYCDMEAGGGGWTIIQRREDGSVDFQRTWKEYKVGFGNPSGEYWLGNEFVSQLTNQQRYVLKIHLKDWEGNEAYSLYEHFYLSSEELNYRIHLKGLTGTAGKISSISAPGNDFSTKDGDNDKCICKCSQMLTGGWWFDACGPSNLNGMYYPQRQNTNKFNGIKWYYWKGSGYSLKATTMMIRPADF
Here is the method:
as §1, §2, §3

In assay [5] the target is T5, mutant Ang-2 protein, N421 substituted with alanine (FLAG-tagged at N-terminal) (human, UniProt O15123 281-496, limits assumed).
T5 chain: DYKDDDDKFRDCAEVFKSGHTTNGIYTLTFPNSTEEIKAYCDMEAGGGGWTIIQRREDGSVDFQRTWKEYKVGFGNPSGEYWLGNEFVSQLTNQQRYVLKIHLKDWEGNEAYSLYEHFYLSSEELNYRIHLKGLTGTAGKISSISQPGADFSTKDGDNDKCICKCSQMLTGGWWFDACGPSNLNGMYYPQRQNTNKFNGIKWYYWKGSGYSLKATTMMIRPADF
Here is the method:
as §1, §2, §3

B1: SAIT-Ang-2-AB-m8B3 (antibody, V domains shown)
VH: DVQLQESGPGLVKPSQSLSLSCTVTGYSIASDYAWNWIRQFPGNKVEWMGYINYRGNTDYNPSLKSRSSINRDTSKNQFFLQLNSVTTGDTATYYCARGNFEGAMDYWGQGTSVTVSS
VL: TIVMTQTPKFLLVSAGDRITITCKASQSVSNDVAWYQQKPGQSPKLLIYYASNRYPGVPDRFTGSGYGTDFTFTISTVQAEDLAVYFCQQDYTSPWTFGGGTELEIK
notes: also called KCLRF-BP-00293
Turning to B1, the “% at RBD binding (mutant Ang-2 against native Ang-2)” value was found to be 95.1% in assay [1]; 8.7% in assay [2]; 99.4% in assay [3]; 4.1% in assay [4]; 102% in assay [5].

B2: SAIT-Ang-2-AB-m2E7 (antibody, V domains shown)
VH: DLQLQESGPGLVKPSQSLSLTCTVTGYSITSDYAWNWIRQFPGNKLEWMGYISYSGSTSYNPSLKSRISITRDTSKNQFFLQLNSLTTEDTATYYCARGDYGNYVGPMDYWGQGTSVTVSS
VL: SIVMTQTPKFLLVSAGDRVTITCKASQSVSNDVAWYRQKPGQSPKLLIYYASNRYTGVPDRFTGSGYGTDFTFTISTVQAEDLAVYFCQQDYSSPLTFGARTKLELK
notes: also called KCLRF-BP-00294
B2: the “% at RBD binding (mutant Ang-2 against native Ang-2)” value came out at 96% in assay [1]; 88.6% in assay [2]; 102% in assay [3]; 0.6% in assay [4]; 98.9% in assay [5].

Values taken from US20150010572A1 (SAMSUNG ELECTRONICS, published 2015).
